Series [1] deals with T1, pTac2-VP64 (Arabidopsis thaliana, UniProt Q9S7Q2 SEQ:106-632).
T1 chain: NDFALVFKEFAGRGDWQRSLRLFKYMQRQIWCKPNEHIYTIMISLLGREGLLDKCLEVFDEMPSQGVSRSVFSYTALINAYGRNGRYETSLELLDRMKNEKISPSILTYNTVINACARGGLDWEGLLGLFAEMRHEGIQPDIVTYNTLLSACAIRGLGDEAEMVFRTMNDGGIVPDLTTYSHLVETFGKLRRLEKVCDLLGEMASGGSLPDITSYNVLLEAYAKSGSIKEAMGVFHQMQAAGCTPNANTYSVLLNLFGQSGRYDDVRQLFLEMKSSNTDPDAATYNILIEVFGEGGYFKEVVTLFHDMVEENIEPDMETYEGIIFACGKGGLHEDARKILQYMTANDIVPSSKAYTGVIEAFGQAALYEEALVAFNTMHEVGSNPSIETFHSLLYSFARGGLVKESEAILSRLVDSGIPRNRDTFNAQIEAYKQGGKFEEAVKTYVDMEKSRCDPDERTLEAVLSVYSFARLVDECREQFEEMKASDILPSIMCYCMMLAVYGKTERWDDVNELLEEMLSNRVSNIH
The series is described as follows: cell_activity; HEK293T dual luciferase, 4x target, vs pminCMV-luc2. The protocol: (§1) The PPR-VP64 expression vector prepared in the section 1, the firefly luciferase expression vector prepared in the section 2, and the pRL-CMV vector (expression vector for Renilla luciferase, Promega) as a reference were introduced by using Lipofectamine LTX (Life Technologies). The DMEM medium (25 μl) was added to each well of a 96-well plate, and a mixture containing the PPR-VP64 expression vector (400 ng), firefly luciferase expression vector (100 ng), and pRL-CMV vector (20 ng) was further added. Then, a mixture of the DMEM medium (25 μl) and Lipofectamine LTX (0.7 μl) was added to each well, the plate was left standing at room temperature for 30 minutes, then 6×10⁴ of the HEK293 T cells suspended in the DMEM medium containing 15% fetal bovine serum (100 μl) were added, and the cells were cultured at 37° C. in a CO₂ incubator for 24 hours.
(§2) The luciferase activity was compared for the cases of introducing pTac2-VP64 or GUN1-VP64 together with pminCMV-luc2 for a negative control, or the reporter vector having 4 or 8 target sequences (table mentioned below, FIG. 6). The comparison of the activity was performed on the basis of standardized scores obtained by dividing the measured values obtained with Fluc (firefly luciferase) with the measured value obtained with Rluc (Renilla luciferase) as the reference (Fluc/Rluc). […]

The target in series [2] is T2, GUN1-VP64 (Arabidopsis thaliana, UniProt Q9SIC9 SEQ:234-620).
T2 chain: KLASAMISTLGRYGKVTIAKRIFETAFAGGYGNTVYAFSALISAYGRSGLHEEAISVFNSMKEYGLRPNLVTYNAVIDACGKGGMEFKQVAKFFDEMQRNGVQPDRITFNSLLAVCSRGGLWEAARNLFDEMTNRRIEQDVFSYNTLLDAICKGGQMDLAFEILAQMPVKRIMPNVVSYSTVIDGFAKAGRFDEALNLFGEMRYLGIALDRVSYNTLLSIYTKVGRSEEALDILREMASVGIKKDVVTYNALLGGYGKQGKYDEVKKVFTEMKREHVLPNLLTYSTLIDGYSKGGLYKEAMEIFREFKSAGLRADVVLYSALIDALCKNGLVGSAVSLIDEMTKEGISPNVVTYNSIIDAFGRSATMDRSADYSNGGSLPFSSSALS
Described as above. The protocol:
as §1, §2

Series [3] addresses T1, pTac2-VP64. The series is described as follows: cell_activity; HEK293T dual luciferase, 8x target, vs pminCMV-luc2. The procedure: as §1, §2
The target in series [4] is T2, GUN1-VP64. Described as above. The procedure:
as §1, §2

We go through four molecules from US20160075744, “DNA-BINDING PROTEIN USING PPR MOTIF, AND USE THEREOF” (KYUSHU UNIVERSITY, NATATIONAL UNIVERSITY CORPORATION, published 2016).

B1: pTac2 target (4x in reporter) (dsDNA)
DNA 1: AACTTTCGTCACTCA
DNA 2: TGAGTGACGAAAGTT
In the series with pTac2-VP64 [1], B1 yielded an activity of 2.91 fold activation.

B2: GUN1 target (4x in reporter) (dsDNA)
DNA 1: AATTTGTCGAT
DNA 2: ATCGACAAATT
On to B2, for which, in the series with GUN1-VP64 [2], the activity came out at 2.88 fold activation.

B3: pTac2 target (8x in reporter) (dsDNA)
DNA 1: AACTTTCGTCACTCA
DNA 2: TGAGTGACGAAAGTT
Turning to B3, the activity with pTac2-VP64 [3] is 4.81 fold activation.

B4: GUN1 target (8x in reporter) (dsDNA)
DNA 1: AATTTGTCGAT
DNA 2: ATCGACAAATT
Consider B4, for which, in the series with GUN1-VP64 [4], the activity came to 3.15 fold activation.
